Laboratory results published in publication PMC9676401.

How the values were obtained:
[1] = molecular target: GFP-tagged JNK1 (JNK1β) in pEGFP-C2; experiment: co-immunoprecipitation (anti-FLAG IP, anti-GFP immunoblot, densitometry); details: COS-7 cells, transient transfection 48 h; parent: est. 1.0; read off a plot
[2] = molecular target: Full-length FLAG-tagged MKP7 C244S (catalytically inactive, substrate-trapping) (human) (UniProt Q9BY84); experiment: co-IP; COS-7 cells cotransfected for 48 h in 10% FBS DMEM with FLAG-MKP7 (WT or mutants) and p38α MAPK-HA, JNK1β-GFP or ERK2-HA; Pierce IP lysis buffer; immunoprecipitation with anti-FLAG M2 overnight and protein-G beads; immunoblot with anti-HA or anti-GFP; quantitation as MAPK/FLAG-MKP7
Sequence of UniProt Q9BY84 (Q9BY84 whole entry C244S): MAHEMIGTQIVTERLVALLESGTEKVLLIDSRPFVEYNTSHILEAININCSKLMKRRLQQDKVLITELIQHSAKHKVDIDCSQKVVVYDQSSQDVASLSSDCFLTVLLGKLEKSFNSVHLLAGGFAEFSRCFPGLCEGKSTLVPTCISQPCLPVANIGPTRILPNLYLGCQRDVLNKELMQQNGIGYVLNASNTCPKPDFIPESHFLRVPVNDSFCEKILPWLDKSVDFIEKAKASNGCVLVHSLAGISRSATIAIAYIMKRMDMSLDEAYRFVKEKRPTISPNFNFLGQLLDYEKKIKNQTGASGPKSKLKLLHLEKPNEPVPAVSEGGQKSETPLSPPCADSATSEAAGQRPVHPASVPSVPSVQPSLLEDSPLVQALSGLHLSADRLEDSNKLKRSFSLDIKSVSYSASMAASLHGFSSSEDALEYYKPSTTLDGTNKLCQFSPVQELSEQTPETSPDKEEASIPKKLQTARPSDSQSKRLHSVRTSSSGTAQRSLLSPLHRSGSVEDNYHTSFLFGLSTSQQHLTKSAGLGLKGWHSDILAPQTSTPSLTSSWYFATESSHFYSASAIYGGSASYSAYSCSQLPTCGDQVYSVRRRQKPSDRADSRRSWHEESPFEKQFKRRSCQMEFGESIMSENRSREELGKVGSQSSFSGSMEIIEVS

Sequence of GFP-tagged JNK1 (JNK1β) in pEGFP-C2 (P45983 whole entry): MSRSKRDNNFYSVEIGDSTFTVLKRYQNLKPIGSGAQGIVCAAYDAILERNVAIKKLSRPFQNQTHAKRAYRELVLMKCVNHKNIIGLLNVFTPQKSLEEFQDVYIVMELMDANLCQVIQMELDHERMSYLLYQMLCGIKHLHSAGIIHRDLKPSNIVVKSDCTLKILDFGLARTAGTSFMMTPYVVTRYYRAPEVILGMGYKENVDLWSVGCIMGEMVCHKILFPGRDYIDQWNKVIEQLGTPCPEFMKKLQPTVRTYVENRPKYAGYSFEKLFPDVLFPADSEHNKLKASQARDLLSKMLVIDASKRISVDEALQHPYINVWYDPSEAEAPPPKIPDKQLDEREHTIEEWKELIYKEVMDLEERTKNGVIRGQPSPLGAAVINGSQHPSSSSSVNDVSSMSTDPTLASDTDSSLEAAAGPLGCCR

## Full-length FLAG-tagged MKP7 WT (1-665 aa) (from UniProt Q9BY84) Y271S
[1]
  ratio to parent: 0

## Full-length FLAG-tagged MKP7 WT (1-665 aa) (from UniProt Q9BY84) Y271S; C244S
[1]
  ratio to parent: 0

## GFP-tagged JNK1 (JNK1β) in pEGFP-C2 (enzyme)
[2]
  fold bound compared with WT: 3 fold
